In publication PMC3817697, “Building a pseudo-atomic model of the anaphase-promoting complex” (Acta Crystallographica Section D: Biological Crystallography, 2013):

B1: Cdc27 (Nuc2) subunit of recombinant S. pombe APC/C (natural protein, UniProt P10505 1-665, looked up)
chain: MTDRLKCLIWYCIDNQNYDNSIFYSERLHAIEDSNESLYLLAYSHFLNLDYNIVYDLLDRVISHVPCTYLFARTSLILGRYKQGISAVEACRSNWRSIQPNINDSISSRGHPDASCMLDVLGTMYKKAGFLKKATDCFVEAVSINPYNFSAFQNLTAIGVPLDANNVFVIPPYLTAMKGFEKSQTNATASVPEPSFLKKSKESSSSSNKFSVSESIANSYSNSSISAFTKWFDRVDASELPGSEKERHQSLKLQSQSQTSKNLLAFNDAQKADSNNRDTSLKSHFVEPRTQALRPGARLTYKLREARSSKRGESTPQSFREEDNNLMELLKLFGKGVYLLAQYKLREALNCFQSLPIEQQNTPFVLAKLGITYFELVDYEKSEEVFQKLRDLSPSRVKDMEVFSTALWHLQKSVPLSYLAHETLETNPYSPESWCILANCFSLQREHSQALKCINRAIQLDPTFEYAYTLQGHEHSANEEYEKSKTSFRKAIRVNVRHYNAWYGLGMVYLKTGRNDQADFHFQRAAEINPNNSVLITCIGMIYERCKDYKKALDFYDRACKLDEKSSLARFKKAKVLILLHDHDKALVELEQLKAIAPDEANVHFLLGKIFKQMRKKNLALKHFTIAWNLDGKATHIIKESIENLDIPEENLLTETGEIYRNLET
notes: Cdc27 (S. pombe name Nuc2; human Apc3), TPR subunit of the S. pombe anaphase-promoting complex; Subunit within the recombinant S. pombe APC/C used for cryo-EM; also called Apc3; source: recombinant S. pombe APC/C
B2: Cdc23 (Cut23) subunit of recombinant S. pombe APC/C (natural protein, UniProt O94556 1-565, looked up)
chain: MTVSLNTMMGVDGLEDQEQLREIRNCLLKCISECSERGLVYAVRWAAEMLNGMNPIEMEHIPFSSTPTGEFDLDPDMANEKLLEVEEKNIYLLAKSYFDCKEFERAAYTLQNCKSSKSIFLRLYSKYLAGEKKSEEENETLLNTNLTLSSTNREFYYISEVLESLHYQGNKDPYLLYLSGVVYRKRKQDSKAIDFLKSCVLKAPFFWSAWLELSLSIDSLETLTTVVSQLPSTHIMTKIFYVYASHELHQVNSSAYEKLAEAEIIFPNSRYLKTQRALLTYDSRDFDEAESLFENILTNDPYRLDDMDTYSNVLFVLENKSKLGFLAQVASSIDKFRPETCSIIGNYYSLLSEHEKAVTYFKRALQLNRNYLSAWTLMGHEYVELKNTHAAIESYRLAVDVNRKDYRAWYGLGQTYEVLDMHFYALYYFQRATALRPYDQRMWQALGNCYEKIDRPQEAIKSYKRALLGSQTNSSILVRLGNLYEELQDLNSAASMYKQCIKTEETEISPETIKARIWLARWELGKKNYREAELYLSEVLNGDLELEEAKALLRELRSRMEHSYD
notes: Cdc23 (S. pombe name Cut23; human Apc8), TPR subunit of the S. pombe anaphase-promoting complex; Subunit within the recombinant S. pombe APC/C used for cryo-EM; also called Apc8; source: recombinant S. pombe APC/C
B3: Cdc16 (Cut9) subunit of recombinant S. pombe APC/C (natural protein, UniProt P41889 1-671, looked up)
chain: MVVKRTQTDSRMQSTPGNHNHPDAHANAAYMTPPSMGALNANNSNSQLSTLTISPMTYLANNTSTDGSFLKERNAQNTDSLSREDYLRLWRHDALMQQQYKCAAFVGEKVLDITGNPNDAFWLAQVYCCTGDYARAKCLLTKEDLYNRSSACRYLAAFCLVKLYDWQGALNLLGETNPFRKDEKNANKLLMQDGGIKLEASMCYLRGQVYTNLSNFDRAKECYKEALMVDAKCYEAFDQLVSNHLLTADEEWDLVLKLNYSTYSKEDAAFLRSLYMLKLNKTSHEDELRRAEDYLSSINGLEKSSDLLLCKADTLFVRSRFIDVLAITTKILEIDPYNLDVYPLHLASLHESGEKNKLYLISNDLVDRHPEKAVTWLAVGIYYLCVNKISEARRYFSKSSTMDPQFGPAWIGFAHSFAIEGEHDQAISAYTTAARLFQGTHLPYLFLGMQHMQLGNILLANEYLQSSYALFQYDPLLLNELGVVAFNKSDMQTAINHFQNALLLVKKTQSNEKPWAATWANLGHAYRKLKMYDAAIDALNQGLLLSTNDANVHTAIALVYLHKKIPGLAITHLHESLAISPNEIMASDLLKRALEENSLTSGFLNSKYVFEDEVSEYMQQSNLNTSDKSMSMEDQSGKVTESVNDRTQVLYADSRSEMMMDDIEGNVSEQR
notes: Cdc16 (S. pombe name Cut9; human Apc6), TPR subunit of the S. pombe anaphase-promoting complex; Subunit within the recombinant S. pombe APC/C used for cryo-EM; the insect-cell MultiBac system is described only for the budding-yeast APC/C; also called Apc6; source: recombinant S. pombe APC/C
B4: Cdc26 (Hcn1) subunit of recombinant S. pombe APC/C (natural protein, UniProt O13916 1-80, looked up)
chain: MLRRNPTAIQITAEDVLAYDEEKLRQTLDSESTTEEALQKNEESTRLSPEKKKIIRERRIGITQIFDSSMHPSQGGAAQS
notes: Cdc26 (S. pombe name Hcn1), TPR accessory subunit of the S. pombe anaphase-promoting complex; Subunit within the recombinant S. pombe APC/C used for cryo-EM; source: recombinant S. pombe APC/C

Target: the molecule itself
Assay: cryo-EM structure; recombinant S. pombe APC/C, single-particle cryo-EM, about 12 Å, still being refined; atomic models of subunits docked into the density and refined as rigid bodies with URO
Conditions: not given

Binder	binding result
B1	binds
B2	binds
B3	binds

Target: B3
Assay: as above
Conditions: both partners purified

binding result	Binder
binds	B4
binds	B1
binds	B2
